In paper PMC5974088, “Structural basis for recognition of 53BP1 tandem Tudor domain by TIRR” (Nature Communications, 2018):
Substitutions are numbered along the chain they refer to.

B1: 53BP1 Tudor-UDR domain (1484-1631) (domain or fragment, H. sapiens)
chain: GHMNSFVGLRVVAKWSSNGYFYSGKITRDVGAGKYKLLFDDGYECDVLGKDILLCDPIPLDTEVTALSEDEYFSAGVVKGHRKESGELYYSIEKEGQRKWYKRMAVILSLEQGNRLREQYGLGPYEAVTPLTKAADISLDNLVEGKRKRRS
notes: overhang left after TEV cleavage, printed as Gly-His-Met; 53BP1 Tudor-UDR domain, H. sapiens, residues 1484-1631; source: E. coli BL21-Codon PLUS(DE3)-RIPL, purified (Ni-NTA, TEV, Superdex200); not shown: His6, N-terminal, cleaved
B2: 53BP1 tandem Tudor domain (1484-1603) (domain or fragment, H. sapiens)
chain: GHMNSFVGLRVVAKWSSNGYFYSGKITRDVGAGKYKLLFDDGYECDVLGKDILLCDPIPLDTEVTALSEDEYFSAGVVKGHRKESGELYYSIEKEGQRKWYKRMAVILSLEQGNRLREQYGLG
notes: overhang left after TEV cleavage, printed as Gly-His-Met; 53BP1 tandem Tudor domain, H. sapiens, residues 1484-1603; also called 53BP1 Tudor; 53BP1-Tudor WT; source: E. coli BL21-Codon PLUS(DE3)-RIPL, purified (Ni-NTA, TEV, Superdex200); not shown: His6, N-terminal, cleaved
B3: 53BP1 Tudor L1547A (domain or fragment, H. sapiens)
chain: B2 chain with L67A
notes: overhang left after TEV cleavage, printed as Gly-His-Met; 53BP1 tandem Tudor domain, H. sapiens, residues 1484-1603; source: E. coli BL21-Codon PLUS(DE3)-RIPL, purified as the wt protein; not shown: His6, N-terminal, cleaved
B4: 53BP1 Tudor Y1523A (domain or fragment, H. sapiens)
chain: B2 chain with Y43A
notes: as for B3
B5: 53BP1 Tudor F1553A (domain or fragment, H. sapiens)
chain: B2 chain with F73A
notes: as for B3
B6: 53BP1 Tudor D1521A (domain or fragment, H. sapiens)
chain: B2 chain with D41A
notes: as for B3
B7: 53BP1 Tudor L1547G (domain or fragment, H. sapiens)
chain: B2 chain with L67G
notes: as for B3
B8: 53BP1 Tudor W1495A (domain or fragment, H. sapiens)
chain: B2 chain with W15A
notes: as for B3
B9: 53BP1 Tudor Y1500A (domain or fragment, H. sapiens)
chain: B2 chain with Y20A
notes: as for B3
B10: mouse TIRR (6-211) (domain or fragment, M. musculus)
chain: GHMVPELKQISREEAMRLGPGWSHSCHAMLYAANPGQLFGRIPMRFSVLMQMRFDGLLGFPGGFVDRRFWSLEDGLNRVLGLGLGGLRLTEADYLSSHLTEGPHRVVAHLYARQLTLEQLHAVEISAVHSRDHGLEVLGLVRVPLYTQKDRVGGFPNFLSNAFVSTAKYQLLFALKVLNMMPSEKLAEALASATEKQKKALEKLLPPSS
notes: overhang left after TEV cleavage, printed as Gly-His-Met; TIRR (Nudt16L1), M. musculus, residues 6-211; Homodimer by ultracentrifugation and in the crystal; also called Nudt16L1; source: E. coli BL21-Codon PLUS(DE3)-RIPL, purified (Ni-NTA, TEV, heparin, Superdex200); not shown: His6, N-terminal, cleaved

Legend:
[1] = molecular target: B10; experiment: ITC; 200-400 μM 53BP1 Tudor domain (wt or mutant) injected into 200 μl of 22-44 μM TIRR or Nudt16 (wt or mutant); 25 °C; 20 mM Tris-HCl pH 7.5, 150 mM NaCl; single-site binding model; settings: both partners purified
[2] = molecular target: B10; experiment: as above; settings: both partners purified; remark: listed apart in the source
[3] = molecular target: B10; experiment: AUC; sedimentation velocity, 20 °C; TIRR and 53BP1 Tudor assembled in equal molar ratio; 20 mM Tris-HCl pH 7.5, 150 mM NaCl; settings: both partners purified
[4] = molecular target: B10; experiment: AUC; sedimentation velocity (20 °C) and sedimentation equilibrium (16 °C); TIRR and 53BP1 Tudor premixed at 2:1 ratio; 20 mM Tris-HCl pH 7.5, 150 mM NaCl; settings: both partners purified
[5] = molecular target: T1, human TIRR (6-211) (H. sapiens, UniProt Q9BRJ7 6-211); experiment: ITC; 200-400 μM 53BP1 Tudor domain (wt or mutant) injected into 200 μl of 22-44 μM TIRR or Nudt16 (wt or mutant); 25 °C; 20 mM Tris-HCl pH 7.5, 150 mM NaCl; single-site binding model; settings: both partners purified
T1 construct: overhang left after TEV cleavage, printed as Gly-His-Met; TIRR (Nudt16L1), H. sapiens, residues 6-211; also called Nudt16L1; source: E. coli BL21-Codon PLUS(DE3)-RIPL, purified (Ni-NTA, TEV, heparin, Superdex200); not shown: His6, N-terminal, cleaved

[6] = molecular target: B10; experiment: as above; settings: both partners purified; remark: listed apart in the source
[7] = molecular target: the molecule itself; experiment: AUC; TIRR alone; 20 mM Tris-HCl pH 7.5, 150 mM NaCl; dimer

T1 sequence (Q9BRJ7 other isoform, or with tags, fused parts or gaps): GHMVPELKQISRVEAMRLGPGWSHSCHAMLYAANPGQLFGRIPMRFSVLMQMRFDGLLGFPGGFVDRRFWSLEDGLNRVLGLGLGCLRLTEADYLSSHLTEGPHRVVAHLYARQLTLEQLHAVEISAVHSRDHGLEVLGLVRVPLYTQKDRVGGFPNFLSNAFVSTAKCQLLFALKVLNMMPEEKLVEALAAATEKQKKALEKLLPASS

Row | Binder | Kd [6] [µM] | further results
1 | B1 |  | Kd [1]: 0.9 µM
2 | B2 |  | Kd [2]: 0.9 µM; stoichiometry N [3]: 1 53BP1 Tudor per TIRR (printed as 2:2); stoichiometry N [4]: 0.5 53BP1 Tudor per TIRR (printed as TIRR/53BP1 Tudor 2:1); stoichiometry N [1]: 1; Kd [5]: 0.9 µM
3 | B3 | 4.7 | 
4 | B4 | 28.5 | 
5 | B5 | 1.5 | 
6 | B6 | 5.4 | 
7 | B7 | 17.3 | 
8 | B8 | 15.4 | 
9 | B9 | 12.7 | 
10 | B10 |  | stoichiometry N [7]: 2
